Data on three molecules can be found in article PMC5971111 (Nature structural & molecular biology, 2018).

T1: Sec3 (S. cerevisiae, UniProt P33332 1-1336)
T1 sequence: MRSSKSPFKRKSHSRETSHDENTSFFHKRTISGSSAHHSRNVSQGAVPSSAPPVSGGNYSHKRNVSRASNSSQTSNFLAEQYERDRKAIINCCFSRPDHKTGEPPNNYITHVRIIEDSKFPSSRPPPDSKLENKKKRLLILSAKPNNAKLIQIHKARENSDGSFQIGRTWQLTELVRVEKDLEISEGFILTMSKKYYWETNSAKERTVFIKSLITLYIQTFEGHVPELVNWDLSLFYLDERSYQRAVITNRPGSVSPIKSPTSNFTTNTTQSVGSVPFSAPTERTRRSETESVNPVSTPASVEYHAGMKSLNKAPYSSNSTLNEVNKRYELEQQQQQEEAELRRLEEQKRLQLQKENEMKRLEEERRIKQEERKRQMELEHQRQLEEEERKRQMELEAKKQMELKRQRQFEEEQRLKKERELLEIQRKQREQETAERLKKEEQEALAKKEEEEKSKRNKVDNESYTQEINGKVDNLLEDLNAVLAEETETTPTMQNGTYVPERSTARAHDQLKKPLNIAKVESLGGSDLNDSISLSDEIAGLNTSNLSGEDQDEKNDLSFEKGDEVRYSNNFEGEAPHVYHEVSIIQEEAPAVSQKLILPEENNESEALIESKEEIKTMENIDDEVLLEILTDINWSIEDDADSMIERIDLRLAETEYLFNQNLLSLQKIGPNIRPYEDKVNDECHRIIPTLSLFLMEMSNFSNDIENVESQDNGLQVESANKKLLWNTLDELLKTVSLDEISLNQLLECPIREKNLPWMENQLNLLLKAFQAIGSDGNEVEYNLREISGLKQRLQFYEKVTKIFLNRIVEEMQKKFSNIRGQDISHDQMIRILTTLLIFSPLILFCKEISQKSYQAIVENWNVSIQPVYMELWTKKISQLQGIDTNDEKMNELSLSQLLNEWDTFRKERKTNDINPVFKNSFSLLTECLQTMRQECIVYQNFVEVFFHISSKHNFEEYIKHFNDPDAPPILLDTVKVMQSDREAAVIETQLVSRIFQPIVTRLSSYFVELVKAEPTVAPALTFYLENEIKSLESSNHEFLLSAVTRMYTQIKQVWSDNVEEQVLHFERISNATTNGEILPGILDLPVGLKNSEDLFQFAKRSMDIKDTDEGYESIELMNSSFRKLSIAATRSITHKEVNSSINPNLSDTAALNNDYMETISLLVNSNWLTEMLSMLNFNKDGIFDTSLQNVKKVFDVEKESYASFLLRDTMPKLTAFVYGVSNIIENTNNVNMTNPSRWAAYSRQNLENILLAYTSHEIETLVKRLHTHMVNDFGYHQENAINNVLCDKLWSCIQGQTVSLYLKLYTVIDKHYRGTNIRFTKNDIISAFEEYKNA

T2: Sec8 (S. cerevisiae, UniProt P32855 1-1065)
T2 sequence: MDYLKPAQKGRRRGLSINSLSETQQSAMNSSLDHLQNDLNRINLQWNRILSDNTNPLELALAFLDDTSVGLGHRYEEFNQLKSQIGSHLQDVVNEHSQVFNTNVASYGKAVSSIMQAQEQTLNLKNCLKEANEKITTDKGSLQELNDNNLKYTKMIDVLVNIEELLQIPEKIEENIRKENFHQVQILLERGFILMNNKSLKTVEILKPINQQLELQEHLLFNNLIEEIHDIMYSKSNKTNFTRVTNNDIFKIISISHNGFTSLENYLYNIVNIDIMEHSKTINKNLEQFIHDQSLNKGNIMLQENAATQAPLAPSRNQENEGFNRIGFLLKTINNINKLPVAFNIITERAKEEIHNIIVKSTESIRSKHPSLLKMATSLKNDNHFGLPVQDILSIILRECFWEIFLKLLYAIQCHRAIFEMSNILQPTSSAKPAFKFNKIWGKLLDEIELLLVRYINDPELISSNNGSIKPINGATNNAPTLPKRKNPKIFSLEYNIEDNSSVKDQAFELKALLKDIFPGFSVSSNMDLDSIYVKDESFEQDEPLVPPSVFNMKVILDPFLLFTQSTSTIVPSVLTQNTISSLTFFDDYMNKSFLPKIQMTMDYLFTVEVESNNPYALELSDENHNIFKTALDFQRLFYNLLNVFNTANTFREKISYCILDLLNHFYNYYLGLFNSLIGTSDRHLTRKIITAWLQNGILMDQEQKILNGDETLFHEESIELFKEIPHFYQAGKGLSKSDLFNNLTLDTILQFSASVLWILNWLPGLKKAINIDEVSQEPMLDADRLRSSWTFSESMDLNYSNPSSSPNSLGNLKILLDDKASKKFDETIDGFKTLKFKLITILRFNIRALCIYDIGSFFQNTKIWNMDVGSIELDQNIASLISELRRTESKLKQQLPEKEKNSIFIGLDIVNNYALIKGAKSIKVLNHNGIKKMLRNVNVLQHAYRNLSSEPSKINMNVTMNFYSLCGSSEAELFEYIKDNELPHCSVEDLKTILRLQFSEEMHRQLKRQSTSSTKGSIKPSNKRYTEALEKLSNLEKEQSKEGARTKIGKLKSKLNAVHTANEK

B1: Sec10 (natural protein)
chain: MNSLYELDPKWKKLLKTDNFLGGLTVNEFVQELSKDHRNDVLIDANTKNLPTNEKDQDAIREAIWKQLDPKPYIRTFESTLKELKNLNEETLNKRQYFSEQVATQEVIHSENVIKLSKDLHTTLLTFDKLDDRLTNVTQVVSPLGDKLETAIKKKQNYIQSVELIRRYNDFYSMGKSDIVEQLRLSKNWKLNLKSVKLMKNLLILSSKLETSSIPKTINTKLVIEKYSEMMENELLENFNSAYRENNFTKLNEIAIILNNFNGGVNVIQSFINQHDYFIDTKQIDLENEFENVFIKNVKFKEQLIDFENHSVIIETSMQNLINDVETVIKNESKIVKRVFEEKATHVIQLFIQRVFAQKIEPRFEVLLRNSLSISNLAYVRILHGLFTLFGKFTKSLIDYFQLLEIDDSNQILSTTLEQCFADLFSHYLYDRSKYFGIEKRSLEAILVDMTSKFTVNYDKEINKRVLLDKYKEKLSTNVDAFMHSPRGNTHSRQDSTSRSKLSQFNSFLKTHLDKDHLSLNRTNTLSDSFNNSSSSTQYDVANNSSSLVNSSFTASDIDNSPNSPANYSLNDVDSMLKCVVESTARVMELIPNKAHLYILEILKIMFLGIVDSYMEIALEVAYWKICKVDINKTAGVVNLNFLKFISMSTEILDLLSISIKSIFLPLLNNSPEIKAQIIEMTNSQIQKMEILINIILQETITVISTKFSAILCKQKKKDFVPKSQELLDQDTLPAIEIVNILNLIFEQSSKFLKGKNLQTFLTLIGEELYGLLLSHYSHFQVNSIGGVVVTKDIIGYQTAIEDWGVASLIDKFATLRELANLFTVQPELLESLTKEGHLADIGRDIIQSYISNREDFNHDNFINSVKLNFR
B2: Sec5 (natural protein)
chain: MDRFQIGDEQLLRFYQLKTINPTHSWAQDSSKLNNEEATSNELGVETSFDILKDFKYGNQISIDKESRAYLNDESLSYIRDPLNGQEMSKELQHLPNDSMRLNYLVNSKQFNVKAFLRDMHKQDSFNDLNNSLDRLDSDIQDQSIHLKQLVGKNFTKYVKIKNKLDQIYKEFDEKTNEKNQCDSPKENQINVESLNKKVDEVIRTTTFKLKPLMDNYQKILNYQATKKFIELNKFYFNLPKSLKRCLTNNDFNEFIIEYSKGLTLRRRFNQSSDASQSLVIKRIWTQIENLLVTYKDLIWNSLINSNFNIDQPQETILSLFSKLLNLENFINNNQRESESGNKNTTSSSNENPILRWMSIKMNGFQNELNELSGHMISKIIHSQRLILQNNTNQDKSQGCVELSYYLKINQLFQIISDTGKDSEGLKSTVEPNKVNTISGTSYLNLNCQPSSQGLTDSPTIIEMWLLILKYINDLWKICDQFIEFWEHIEKFLDGTYQNSIINEKRKENILIGDSNIIESYQKSLILKEEQINEVRLKGEEFITSVSQNLISFFTSSQSSLPSSLKDSTGDITRSNKDSGSPLDYGFIPPNCNGLSCLRYLPKIVEPILKFSTELAQLNITTNGITICRNTLSTIINRCVGAISSTKLRDISNFYQLENWQVYETVTFSSKSQDSSKNLTFEYGVTQFPEIVTSFQEVSIKTTRDLLFAYEKLPIINGISVVSYPSKQLLTGIEIQQIISMEAVLEAILKNAAKDKDNPRNSHTILTLTNLQYFRECAFPNILQYFDDAFEWNLASKNLELFSLLSKMESSIFGNYLSDLKINLRDTLEEKFHEINWPMYTSNSFRVGDYIIEALMILIVVHSECFRIGPQLIHKILIETQIFIARYLFEAFKPYVGNLSNDGSLQIIVDLEFFQKVMGPLLEKDTEATLRACLQNCFQNDTNRLQKCINEINPIVSANLKRTAIQFAAFS
B3: Sec15 (natural protein)
chain: MDQEGQPLLSKDFQQVLLATASGNNSSWTERAVLNNESTDAVKHEPALGQNDVFDLDPLSFDKWVPFLRRALDKNQLDPVIDELENSIEDNFQGLELQLLQDSQMNDKLETSIDEIANIQGMVQDTLSSEISKFQIRLSESANELIVKKQMYVNNKKISLKISEATILITKVVRILELSSKCQELITERKFFKVLQNLDSLEKLYLQEFKNYNFQFLIEIYNSIPFLQKVTKDECINLIRNSLNLNLGKNLIKVGQEFVAIYENELLPQWLETRSKMKLTNFKFNSPIEISMRDESFLAKLNLGEFFQLDDFHDSIMIFQNLNELSVLSGEFNKEYELRKTKLMYPLIWKKNKTAAYQMDSLLRGTGTTPGSTAHDVSTDDPFTQSLSLHFLQDYFLKILGFLLYDINLNKATEFILVDNNYNSTNEFWDGLMDRLSPYLSYFIDEKLKTEEDMIKLKDFLCIYVAILENFKLNIEPLYKILVSIFEKFCSVSLRAFDDEFQILLNDDDFMPLSINDKTLYEKVLKICWMKEGEHLSLPDPTNGEPFAVTLPFSPLYPMTCTLAKKTYSKITAFLSIFYRHELHTLNNILVKTMDDIFNDIVNKKIRSKLESTSREEIAQILVNLDYFIIAAKEFSNFMTRENILQNPDMEIRLSSIKYLAESRKLAETKLIELIDSKISDILETIEIDWQITEVRQDPDISIIDLAQFLEMMFASTLQNLPYSVQTLLIFREFDSLTRQFMGLLLHDTPSTITHESIMNFEVDVNYLESIIPRIFPSTPGTIDSNGYQSPMTPSTPTFPNANGVDAPTLFENNIKSLEATFMELKQCIELLKTQGKDYNEPEIRLRKYSRIRQEDAALLLSKIQHFVSSVEGANGDDTSVMDSSSIFNSESASVIDSNTSRIAKFFNRR

What all share (test): […]
For one assay, the target named is T1, Sec3.
The assay “Sec15” concerns the target B3.
A further assay has as its target T2, Sec8.

B1: the binding result in the assay with Sec3, with Sec15 and with Sec8 was “binds” throughout.

For B2, the binding result with Sec3 and in the assay with Sec8 was “binds” throughout.

Consider B3, for which, in the assay with Sec8, the binding result is recorded as “binds”.
